# From patent US20250276077A1 (IMMUNOME, published 2025)
# Biological target: Human EphA2 (ephrin receptor A2) on cells (human, UniProt P29317 25-976)
# Assay: cell-based or functional assay
# Sequence of Human EphA2 (ephrin receptor A2) on cells (P29317 25-976): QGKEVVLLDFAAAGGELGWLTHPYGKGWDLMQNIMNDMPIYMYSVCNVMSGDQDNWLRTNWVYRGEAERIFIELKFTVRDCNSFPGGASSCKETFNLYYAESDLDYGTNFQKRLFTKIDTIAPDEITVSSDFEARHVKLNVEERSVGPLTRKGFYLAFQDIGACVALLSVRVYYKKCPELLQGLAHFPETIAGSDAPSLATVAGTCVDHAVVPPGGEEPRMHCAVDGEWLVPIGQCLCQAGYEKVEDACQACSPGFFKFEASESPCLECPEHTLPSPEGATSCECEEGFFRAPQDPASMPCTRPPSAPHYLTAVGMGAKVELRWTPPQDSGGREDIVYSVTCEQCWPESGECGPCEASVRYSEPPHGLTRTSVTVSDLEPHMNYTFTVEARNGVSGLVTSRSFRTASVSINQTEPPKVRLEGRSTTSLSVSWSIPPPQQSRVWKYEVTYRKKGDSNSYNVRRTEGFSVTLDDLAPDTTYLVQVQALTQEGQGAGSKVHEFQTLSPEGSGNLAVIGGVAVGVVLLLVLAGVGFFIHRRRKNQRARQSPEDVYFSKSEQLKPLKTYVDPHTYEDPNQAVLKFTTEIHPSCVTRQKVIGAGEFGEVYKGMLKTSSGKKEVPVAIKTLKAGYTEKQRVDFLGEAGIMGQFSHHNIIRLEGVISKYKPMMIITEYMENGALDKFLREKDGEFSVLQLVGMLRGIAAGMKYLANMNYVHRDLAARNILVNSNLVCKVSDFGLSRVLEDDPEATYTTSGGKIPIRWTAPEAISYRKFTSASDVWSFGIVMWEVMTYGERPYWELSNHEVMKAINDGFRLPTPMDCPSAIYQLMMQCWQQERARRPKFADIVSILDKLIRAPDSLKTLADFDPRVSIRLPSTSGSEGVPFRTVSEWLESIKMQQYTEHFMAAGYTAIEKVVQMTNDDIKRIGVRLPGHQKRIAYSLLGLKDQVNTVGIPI
Binder,"ADCC - EC50 (nM), Trial 1, A549","ADCC - EC50 (nM), Trial 2, A549"
"AB-010666 (antibody, V domains shown) VH: QVQLQQWGAGLLKPSETLSLTCAVYGGSFSDYYWSWIRQPPGKGLEWIGEINHRGSINYNNYNPSLKSRVTISVDTSKNQFSLKLSSVTAADTAVYYCAKPLRPHCTNGVCYSGDAFDIWGQGTMVTVAS VL: SYVLTQPPSVSVAPGQTARITCGGNNIGYMNVHWYQQKPGQAPVLVVYDDSDRPSGIPEQFSGSNSGNTATLTISRVEAGDEADYYCQVWDSSSDHVVFGGGTKLTVL",~0.19 nM,0.16 nM
"AB-010663 (antibody, V domains shown) VH: QVQLQQWGAGLLKPSETLSLTCAVYGGSFSDYYWSWIRQPPGKGLEWIGEINHRGSINYNNYNPSLKSRVTISVDTSKNQFSLKLSSVTAADTAVYYCAKPLRPHCTNGVCYSGDAFDIWGQGTMVTVAS VL: SYVLTQPPSVSVAPGQTARITCRGNNIGSMNVHWYQQKPGQAPVLVVYDDSDRPSGIPEQFSGSNSGNTATLTISRVEAGDEADYYCQVWDSSSDHVVFGGGTKLTVL",4.7 nM,–
"AB-010695 (antibody, V domains shown) VH: QVQLQQWGAGLLKPSETLSLTCAVYGGSFSGYYWSWIRQPPGKGLEWIGEINHRGSINYNNYNPSLKSRVTISVDTSKNQFSLKLSSVTAADTAVYYCAKPLRPHCTNGVCYSGDAFDIWGQGTMVTVAS VL: SYVLTQPPSVSVAPGQTARITCGGNNIGYKNVHWYQQKPGQAPVLVVYDDSDRPSGIPERFSGSNSGNTATLTISRVEAGDEADYYCQVWDHSSDHVVFGGGTKLTVL",~0.021 nM,0.0096 nM
"AB-010661 (antibody, V domains shown) VH: QVQLQQWGAGLLKPSETLSLTCAVYGGSFSDYYWSWIRQPPGKGLEWIGEINHRGSINYNNYNPSLKSRVTISVDTSKNQFSLKLSSVTAADTAVYYCAKPLRPHCINGVCYSGDAFDIWGQGTMVTVAS VL: SYVLTQPPSVSVAPGQTARITCRGNNIGSKNVHWYQQKPGQAPVLVVYDDSDRPSGIPEQFSGSNSGNTATLTISRVEAGDEADYYCQVWDSSSDHVVFGGGTKLTVL",5.7 nM,–
"AB-010698 (antibody, V domains shown) VH: QVQLQQWGAGLLKPSETLSLTCAVYGGSFSGYYWSWIRQPPGKGLEWIGEINHRGSINYNNYNPSLKSRVTISVDTSKNQFSLKLSSVTAADTAVYYCAKPLRPHCINGVCYSGDAFDIWGQGTMVTVAS VL: SYVLTQPPSVSVAPGQTARITCGGNNIGSKNVHWYQQKPGQAPVLVVYDDSDRPSGIPERFSGSNSGNTATLTISRVEAGDEADYYCQVWDHSSDHVVFGGGTKLTVL",0.23 nM,–
"AB-010700 (antibody, V domains shown) VH: QVQLQQWGAGLLKPSETLSLTCAVYGGSFSGYYWSWIRQPPGKGLEWIGEINHRGSINYNNYNPSLKSRVTISVDTSKNQFSLKLSSVTAADTAVYYCAKPLRPHCTNGVCYSGDAFDIWGQGTMVTVAS VL: SYVLTQPPSVSVAPGQTARITCGGNNIGSKNVHWYQQKPGQAPVLVVYDDSDRPSGIPERFSGSNSGNTATLTISRVEAGDEADYYCQVWDSRSDHVVFGGGTKLTVL",9.5 nM,–
"AB-010667 (antibody, V domains shown) VH: QVQLQQWGAGLLKPSETLSLTCAVYGGSFSDYYWSWIRQPPGKGLEWIGEINHRGSINYNNYNPSLKSRVTISVDTSKNQFSLKLSSVTAADTAVYYCAKPLRPHCTNGVCYSGDAFDIWGQGTMVTVAS VL: SYVLTQPPSVSVAPGQTARITCGGNNIGYKNVHWYQQKPGQAPVLVVYDDSDRPSGIPEQFSGSNSGNTATLTISRVEAGDEADYYCQVWDHSSDHVVFGGGTKLTVL",< 0.03 nM,0.012 nM
"AB-010670 (antibody, V domains shown) VH: QVQLQQWGAGLLKPSETLSLTCAVYGGSFSDYYWSWIRQPPGKGLEWIGEINHRGSINYNNYNPSLKSRVTISVDTSKNQFSLKLSSVTAADTAVYYCAKPLRPHCINGVCYSGDAFDIWGQGTMVTVAS VL: SYVLTQPPSVSVAPGQTARITCGGNNIGSKNVHWYQQKPGQAPVLVVYDDSDRPSGIPEQFSGSNSGNTATLTISRVEAGDEADYYCQVWDHSSDHVVFGGGTKLTVL",0.36 nM,–
"AB-010701 (antibody, V domains shown) VH: QVQLQQWGAGLLKPSETLSLTCAVYGGSFSGYYWSWIRQPPGKGLEWIGEINHRGSINYNNYNPSLKSRVTISVDTSKNQFSLKLSSVTAADTAVYYCAKPLRPHCTNGVCYSGDAFDIWGQGTMVTVAS VL: SYVLTQPPSVSVAPGQTARITCGGNNIGSKNVHWYQQKPGQAPVLVVYDDSDRPSGIPERFSGSNSGNTATLTISRVEAGDEADYYCQVWDSESDHVVFGGGTKLTVL",3 nM,–
"AB-010665 (antibody, V domains shown) VH: QVQLQQWGAGLLKPSETLSLTCAVYGGSFSDYYWSWIRQPPGKGLEWIGEINHRGSINYNNYNPSLKSRVTISVDTSKNQFSLKLSSVTAADTAVYYCAKPLRPHCINGVCYSGDAFDIWGQGTMVTVAS VL: SYVLTQPPSVSVAPGQTARITCGGNNIGYKNVHWYQQKPGQAPVLVVYDDSDRPSGIPEQFSGSNSGNTATLTISRVEAGDEADYYCQVWDSSSDHVVFGGGTKLTVL",~0.23 nM,0.14 nM
"AB-010696 (antibody, V domains shown) VH: QVQLQQWGAGLLKPSETLSLTCAVYGGSFSGYYWSWIRQPPGKGLEWIGEINHRGSINYNNYNPSLKSRVTISVDTSKNQFSLKLSSVTAADTAVYYCAKPLRPHCINGVCYSGDAFDIWGQGTMVTVAS VL: SYVLTQPPSVSVAPGQTARITCGGNNIGSMNVHWYQQKPGQAPVLVVYDDSDRPSGIPERFSGSNSGNTATLTISRVEAGDEADYYCQVWDSSSDHVVFGGGTKLTVL",1.9 nM,–
"AB-010669 (antibody, V domains shown) VH: QVQLQQWGAGLLKPSETLSLTCAVYGGSFSDYYWSWIRQPPGKGLEWIGEINHRGSINYNNYNPSLKSRVTISVDTSKNQFSLKLSSVTAADTAVYYCAKPLRPHCTNGVCYSGDAFDIWGQGTMVTVAS VL: SYVLTQPPSVSVAPGQTARITCGGNNIGSMNVHWYQQKPGQAPVLVVYDDSDRPSGIPEQFSGSNSGNTATLTISRVEAGDEADYYCQVWDHSSDHVVFGGGTKLTVL",0.44 nM,–

# Continued, values first:
"ADCC - EC50 (nM), Trial 1, A549","ADCC - EC50 (nM), Trial 2, A549",Binder
0.15 nM,–,"AB-010693 (antibody, V domains shown) VH: QVQLQQWGAGLLKPSETLSLTCAVYGGSFSGYYWSWIRQPPGKGLEWIGEINHRGSINYNNYNPSLKSRVTISVDTSKNQFSLKLSSVTAADTAVYYCAKPLRPHCINGVCYSGDAFDIWGQGTMVTVAS VL: SYVLTQPPSVSVAPGQTARITCGGNNIGYKNVHWYQQKPGQAPVLVVYDDSDRPSGIPERFSGSNSGNTATLTISRVEAGDEADYYCQVWDSSSDHVVFGGGTKLTVL"
0.54 nM,–,"AB-010664 (antibody, V domains shown) VH: QVQLQQWGAGLLKPSETLSLTCAVYGGSFSDYYWSWIRQPPGKGLEWIGEINHRGSINYNNYNPSLKSRVTISVDTSKNQFSLKLSSVTAADTAVYYCAKPLRPHCTNGVCYSGDAFDIWGQGTMVTVAS VL: SYVLTQPPSVSVAPGQTARITCRGNNIGSKNVHWYQQKPGQAPVLVVYDDSDRPSGIPEQFSGSNSGNTATLTISRVEAGDEADYYCQVWDHSSDHVVFGGGTKLTVL"
< 0.03 nM,0.0064 nM,"AB-010671 (antibody, V domains shown) VH: QVQLQQWGAGLLKPSETLSLTCAVYGGSFSDYYWSWIRQPPGKGLEWIGEINHRGSINYNNYNPSLKSRVTISVDTSKNQFSLKLSSVTAADTAVYYCAKPLRPHCINGVCYSGDAFDIWGQGTMVTVAS VL: SYVLTQPPSVSVAPGQTARITCGGNNIGYKNVHWYQQKPGQAPVLVVYDDSDRPSGIPEQFSGSNSGNTATLTISRVEAGDEADYYCQVWDHSSDHVVFGGGTKLTVL"
0.3 nM,–,"AB-010697 (antibody, V domains shown) VH: QVQLQQWGAGLLKPSETLSLTCAVYGGSFSGYYWSWIRQPPGKGLEWIGEINHRGSINYNNYNPSLKSRVTISVDTSKNQFSLKLSSVTAADTAVYYCAKPLRPHCTNGVCYSGDAFDIWGQGTMVTVAS VL: SYVLTQPPSVSVAPGQTARITCGGNNIGSMNVHWYQQKPGQAPVLVVYDDSDRPSGIPERFSGSNSGNTATLTISRVEAGDEADYYCQVWDHSSDHVVFGGGTKLTVL"
0.57 nM,–,"AB-010662 (antibody, V domains shown) VH: QVQLQQWGAGLLKPSETLSLTCAVYGGSFSDYYWSWIRQPPGKGLEWIGEINHRGSINYNNYNPSLKSRVTISVDTSKNQFSLKLSSVTAADTAVYYCAKPLRPHCTNGVCYSGDAFDIWGQGTMVTVAS VL: SYVLTQPPSVSVAPGQTARITCRGNNIGYKNVHWYQQKPGQAPVLVVYDDSDRPSGIPEQFSGSNSGNTATLTISRVEAGDEADYYCQVWDSSSDHVVFGGGTKLTVL"
3.7 nM,–,"AB-010668 (antibody, V domains shown) VH: QVQLQQWGAGLLKPSETLSLTCAVYGGSFSDYYWSWIRQPPGKGLEWIGEINHRGSINYNNYNPSLKSRVTISVDTSKNQFSLKLSSVTAADTAVYYCAKPLRPHCINGVCYSGDAFDIWGQGTMVTVAS VL: SYVLTQPPSVSVAPGQTARITCGGNNIGSMNVHWYQQKPGQAPVLVVYDDSDRPSGIPEQFSGSNSGNTATLTISRVEAGDEADYYCQVWDSSSDHVVFGGGTKLTVL"
0.14 nM,–,"AB-010694 (antibody, V domains shown) VH: QVQLQQWGAGLLKPSETLSLTCAVYGGSFSGYYWSWIRQPPGKGLEWIGEINHRGSINYNNYNPSLKSRVTISVDTSKNQFSLKLSSVTAADTAVYYCAKPLRPHCTNGVCYSGDAFDIWGQGTMVTVAS VL: SYVLTQPPSVSVAPGQTARITCGGNNIGYMNVHWYQQKPGQAPVLVVYDDSDRPSGIPERFSGSNSGNTATLTISRVEAGDEADYYCQVWDSSSDHVVFGGGTKLTVL"
0.065 nM,–,"AB-010702 (antibody, V domains shown) VH: QVQLQQWGAGLLKPSETLSLTCAVYGGSFSGYYWSWIRQPPGKGLEWIGEINHRGSINYNNYNPSLKSRVTISVDTSKNQFSLKLSSVTAADTAVYYCAKPLRPHCTNGVCYSGDAFDIWGQGTMVTVAS VL: SYVLTQPPSVSVAPGQTARITCGGNNIGYKNVHWYQQKPGQAPVLVVYDDSDRPSGIPERFSGSNSGNTATLTISRVEAGDEADYYCQVWDSESDHVVFGGGTKLTVL"
